In PMC6644640:

Target: prostate-specific antigen (PSA), enzymatically active, from human seminal fluid (human, UniProt P07288 25-261)
Experiment: chemiluminescence sandwich assay on Si NW surface

prostate-specific antigen (PSA), enzymatically active, from human seminal fluid, sequence (P07288 25-261): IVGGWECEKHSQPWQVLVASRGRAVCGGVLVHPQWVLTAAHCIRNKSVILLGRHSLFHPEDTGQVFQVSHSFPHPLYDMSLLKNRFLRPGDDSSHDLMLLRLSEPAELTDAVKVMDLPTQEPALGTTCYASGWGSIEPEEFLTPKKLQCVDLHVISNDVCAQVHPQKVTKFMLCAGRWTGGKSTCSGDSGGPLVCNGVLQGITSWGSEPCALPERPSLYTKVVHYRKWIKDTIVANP

AAAAATTAATTTCGAGCGGTAGTTTATCGAAA (ssDNA, 5'-H3N-(CH2)6) [nonspecific aptamer (32 nt control)]: no binding.
